For the test, the target named is tetraspanin CD81 (human (endogenous in THP-1)) (UniProt P60033).
Sequence of UniProt P60033 (P60033 whole entry): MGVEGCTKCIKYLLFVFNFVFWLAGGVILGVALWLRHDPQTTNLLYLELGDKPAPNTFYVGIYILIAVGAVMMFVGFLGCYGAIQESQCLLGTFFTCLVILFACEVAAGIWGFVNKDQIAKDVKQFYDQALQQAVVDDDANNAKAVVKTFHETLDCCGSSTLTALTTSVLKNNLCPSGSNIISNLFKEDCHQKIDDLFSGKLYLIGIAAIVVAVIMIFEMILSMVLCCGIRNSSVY

“AhpC-6×His (recombinant M. abscessus AhpC) (enzyme)”: the reduction of infectivity of Mab WT (CFU) in THP-1 cells pre-incubated with 2 μg soluble AhpC-His, against untreated cells or cells pre-incubated with Hsp16.7-His turned out to be 30%.

The values above are taken from paper PMC9929602.
